# Data reported in the nanobody polyreactivity screen of Harvey et al. (2022).
# Assay: yeast display, Sf9 membrane polyspecificity reagent, FACS + sequencing; frameworks hold sequencing errors
# Summary of the method: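 A nanobody's polyreactivity label depends on the gate it was sorted from. Yeast display cells were stained with 10% biotinylated, detergent-solubilized Sf9 membrane reagent for 1 hour at 4 °C, enriched on streptavidin microbeads and sorted by FACS. The low and high (top ~1%) gates were set on anti-HA fluorescence for expression and streptavidin fluorescence for reagent binding.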
row,Sequence,polyreactivity (PSR sort gate)
1,QVQLVESGGGLVQAGGSLRLSCAASGSTFSFNDMGWYRQAPGKERELVADISWSGDTTYADSVKGRFTISRDNAKKTVYLQMNSLKPEDTGVYYCDADRHRYQGYTYDYWGQGTQVTVSS,high polyreactivity
2,QVQLVESGGGLVQAGGSLRLSCAASGRTFVGYAMGWYRQAPGKERELVAAISRRGGSTYYADSVKGRFTISRDYAKKTVYLQMNSLKPEDTAVYYCARDYGGVGAPGSAGAYDYWGQGTQVTVSS,high polyreactivity
3,QVQLVESGGGLVQAGGSLRLSCAASGRIFGKNAMGWYRQAPGKERELVAAITGSGGNTYYADSVKGRFTISRDNAKNTVYLQMNSLKPEDTAVYYCNTSPRFRRYPDYDYWGQGTQVTVSS,high polyreactivity
4,QVQLVESGGGLVQAGGSLRLSCAASGSILSFNAMGWYRQAPGKERELVAAISRGGSTNYADSVKGRFTISRDNAKNTVYLQMNSLKPEDTAVYYCAAVQYRYSTRWARRAYDYWGQGTQVTVSS,high polyreactivity
5,QVQLVESGGGLVQAGGSLRLSCAASGFIFGGYALGWYRQAPGKERELVAAISWSGDNTYYADSVKGRFTISRDNAKNTVYLQMNSLKPEDTAVYYCAADSYGQEYDYWGQGTQVTVSS,low polyreactivity
6,QVQLVESVGGLVQAGGSLRLSCAATGRIFHYNAMGWYRQAPGKERELVAAITSSGGTTYYADSVKGRFTISRDIAKNTVYLQMNTLKPEDTAVYYCNAVTSARVNYRGQGTQVTVSS,high polyreactivity
7,QVQLVESGGGLVQAGGSLRLSCAASGSIFTIYAMGWYRQAPGKERELVAAISFSGGSTYYADSVKGRFTISRDNAKNTVYLQMNSLKPEDTAVYYCAADGGFTYDNWGQGTQVTVSS,low polyreactivity
8,QVQLVESGGGLVQAGGSLRLSCAASGSIFSGNVMGWYRQAPGKERELVAAISGRGGSTYYADSVKGRFTISRDNAKNTVYLQMNSLKPEDTAVYYCAAVYLKTYYWGQGTQVTVSS,high polyreactivity
9,QVQLVESGGGLVQAGGSLRLSCAASGRILTGYAMGWYRQAPGKERELVAAISNDTDSTHYADSVKGRFTISRDNAKNTVYLQMNSLKPEDTAVYYCATDAPLQKRWRRFDYWGQGTQVTVSS,low polyreactivity
10,QVQLVESGGGLVQAGGSLRLICAASGGTFRAYVMGWYTQAPGKERELVAAISRSGTRTYYSDSVKGRFTISRDNAKNTVYFQMNSLKPEDTAVYYCAAAAKSWLFDYWGQGTLVTVSS,high polyreactivity
11,QVQLLETGGGLVQAGGSLRLSCAPSGGIFGFNAMGWYRQAPGKERELVADISDGVRTNYADSVKGLFTISRDNAKTTVYLQMNRLKPEDTAVYYCATDGLFYVDGSWTLGYWGQGTQVTVSS,low polyreactivity
12,QVQLVESGGGLVQAGGSLRLSCAASGSIFARFAMGWYRQAPGKERELVAAISGRGGSTYYADSVKGRFTISRDNAKNTVYLQMNSLKPEDTAVYYCNAVGHTSIRRALDILDYWGQVTQVTVSS,high polyreactivity
13,QVQLVESGGGLVQAGGSLRLSCAASGRTFVPNAMGWYRQAPGKERELVAAISDSGGSTYYADSVKGRFTISRDNAKNTVYLQMNSLKPEDTAVYYCATDGTTYVGWEHGFNYWGQGTQVTVSS,low polyreactivity
14,QVQLVESGGLLVQAGGSLRLSCAASGFNFYNYAMGWYRQAPGKERELVAAISKRGGRTYYADSVKGRFTISRDNAKITVYLQMNRLKPVDTAVYYCNTDAVRPYHVAWYDYWGQGTQVTVSS,high polyreactivity
15,QVQLVESGGGLFQAGGSLRISCAASGRTFWYYAMGWYRPAPGKERELVAAITRGTSTYADSVKGRYTISRDNAKNTVYLQMNSLKPEDTAVYYCATYFRVWYRSYDYWGQGTQVTVSS,high polyreactivity
16,QVWLQESGGGLVQACGSLRLSCAASGTISRDIFMGWYRQAPGKEREFVATIAQGGITNYADSVKGRFTISRDNAKNTVYLQMNSVKPGDTAVYYCAARDGNCYWFYYGGQGTQVTVSS,high polyreactivity
17,QVQLVESGGGLVQAGGSLRLSCAASGRIFGIYAMGWYRQAPGKERELVSRITGGGSTNYADSVKGRFTISRDNAKNTVYLQMNSLKPEDTAVYYCAADSYLSVYDPYGYWGQGTQVTVSS,low polyreactivity
18,QVQLVESGGGLVQAGGSLRLSCDASGFTFYSYARGWYRQAPGKEREFVASISRSGGSTYYADSVKGRFTISRDNAKYTVYLQMNSLKAEDTEVYYCAARSVRDRDGGDYWGQGTQVTVSS,high polyreactivity
19,QVQLVESGGGLVQAGGSLRLSCAASGIIFGTNAMGWYRQAPGKERELVASITSDGSTYYADSVKGRFTISRDNAKNTVYLQMNSLKPEDTAVYYCAADHYWADGVYLYDTYEYGYWGQGTQVTVSS,low polyreactivity
20,QVHLVESGGGLVQAGGSLRLSCADSGSTFVAYAMGWYRQAPGKERDLVAAISKSGVRTYYADSVKGRFTISRDNAKNTVYLVMISLKPEDNAVYVCAADSGDLWGPFGYWGQGTQVTVSS,low polyreactivity
21,QVQLVESGGGLVQAGGSLRLSCAASGFIFARYAMGWYRQAPGKERELVAAISSSGSSSYYADSVKGRFTISRDNAKNTVYLQMNSLKPEDTAVYYCAAKDSKYRNSPLYNYWGQGTQVTVSS,high polyreactivity

row,Sequence,polyreactivity (PSR sort gate)
1,QVHLVESGGGLVQAGGSHRLSCASSGFIFYFYTMGWYRQAPGKERELVAGITWLDGSTYYADSVKGRFTISRDNAKNTVYLQMNSLKPEDTAVYYCAVDYDLVVSPYYYWGQGTQVTVSS,low polyreactivity
2,QVQLVESGGGLVQAGGSLRLSCAASGSIFVHNTMGWYRQAPGKERELVAAITRSVGRTYYADSVKGRFTISRDNAKNTVYLQMNSLKPEDTAVYYCAARKNYGSRLSYEYWGQGTQVTVSS,high polyreactivity
3,QVQLVESGGGLVQAGGSLRLSCAASGFTFGFYAMGWYRQAPGEEWELVATISSAGSTTYADSVKGRFTLSRDNAKHTVYLQMNSLKPEETAVYYCATRRWSWPQFRTGDYWGQGTQVTVSS,high polyreactivity
4,QVQLVESGGGLVQAGGSLRLSCAASGSIFVHYAMGWYRQAPGKERELVASISTSGGRTRYADSVKGRFTISRDNAKNTVYLQMNSLKPEDTAVYYCAALRWGRRYDYWGQGTQVTVSS,high polyreactivity
5,QVQLVESGGGLVQAGGSLRVSCAASGRTFKKYTMGLYRQAAGKERELVPVITSGGSTYYADSVKGRFTISRDNAKNTVYLQMNSLKPEDTAVYYWAADLYYNSYGRYGRYYYWGQGTQVTVSS,high polyreactivity
6,QVQLVESGGGLVQAGGSLRLSCAASASNFGYNAMGRYRQAPGKERELVAVITDSGGSTYYADSVKGRFTISRDNAKNTVYLQMNSLKPEDTAVYYCAKVYGLVVRGHVILSGFDYWGQGTQVTVSS,low polyreactivity
7,QVQLVESGGGLVQAGGSLRISSAASGLTFYRYAIGWYRQAPGKERELVAAIRSNVVTTYYADSVKGRFTISRDNAKNTVYLKMNSLKPEDTAVYYCAARFGRSAPPGYDYWGQGTQVTVSS,high polyreactivity
8,QVQLEESGGGLVQAGGSLRLSCAATGILRLNAIGWYRHAPGKEREFVATISRSGGITYYADSVKGRFTISRDNAKNTVYLQMNSLKPEDTAVYYCAKGGYSLYGYWGQGTQVTVSS,high polyreactivity
9,QVQLVESGGGLVQAGGSLRLSCAASGSIFHYYAMGWYRQAPGKERELVAAINSSGGSRTYYADSVKGRFTISRDNAKNTVYLQMNSLKPEDTAVYYCAAARDVFLGLQIWYWYGGDYWGQGTQVTVSS,low polyreactivity
10,QVQLVESGGGLVQAGGSLRLSCAASGSIFRQNVMGWYRQAPGKERELVAAISRNGGSTYYADSVKGRFTISRDNAKNTVYFQMNSLKPEDTGVYYCAARGFRRYDYWGQGTQVTVSS,high polyreactivity
11,QVQLVESGGGLVQAGGSLRLSSAASGRIFRKYAMGWYRQAPGKERELVAAISGSGVSTYYADSVKGRFTISRDNAKNTVYLQMNSLKPEDTAVYYCNARIILRGYKSYRYDYWGQGTQVTVSS,high polyreactivity
12,QVQLVESGGCLVQAGGSLRLSCAASGLNFSKNVKGWYIQAPGKERELVAAISQRGGSTYYADSVKGRFTISRDYAKNTVYLQMNSLKPEDTAVYYCAADTTVSHEDYWGQGTQVTVSS,low polyreactivity
13,QVQLVESGGGLVQAGGSLRLSCAASGITFTDYAMGWYRQAPGKERELVAAISGIGSTTYYADSVKGRFTISRDNAKNTVYLQMNSLKPEDTAVYYCNALLAYTYWYDYWGQGTQLTVSS,high polyreactivity
14,QVQLVESGGGLVLAGGRLRLSCAASGSTFGYYAMGWYRQAHGKERELVAAISQGAGRTYYADSVKGRFTISRDNAKNTDYLQMNSLKPEDSAVYYFAASVTVHRWAYGYWGQGTQVTVSS,high polyreactivity
15,QVHLVESGGGLVQAGGSLRLSCAASGIIFDEYAMGWYSQAPGKERELVAAINWSGGITYYADSVKGRFTISRDNAKNTVYLQMNSLKPEDTAVYYCNKDPLVFDYWGQGTQVTVSS,low polyreactivity
16,QVQLVESGGGLVQAGGSLRLSCAASGRTFFDYAMGWYRQAPGKERELVAAINWSGGRTYYADSVKGRFTISRDNAKNTVYLQMNTLKPEDTAVYYCAKPFSSNSWSHGYWGQGTQVTVSS,low polyreactivity
17,QVQVVESGGGLVQPGGSLRVSCAASGSTFIAYVKGWSRQAPGKEWELVAAISWSGSNTYYADSVKGRFTISRDNAKITVYFQMNCLKPEDTAVYYCNARSFAPDKKYDYWGQGTQVTVSS,low polyreactivity
18,QVQLQERGGGLVQAGGSLCLTCEASGTIFYDGDMGLYRQAPGKEREFVAAINPGGSAYYADSVKGRLPLAAITHTVYLQMFSLKPEDTAVYYCAAEQITGWSRVWVSWYDYWGQGTQVTVSS,low polyreactivity
19,QVQLVESGGGLDQAGGRLRLSCAASGSIFSIYAMGRYRQAPGKERELVAAISSGGSTYADSVKGRFTISRDNAKNTVYLQMNSLKPEDTAVYYCAADRRGYRGYDYWGQGTQVTVSS,low polyreactivity
20,QVQLVESGGGLVQAGGSLRLICYASGSIFWVYAMGWYRQAPGKEWELVADIRYRDGSTHYADSVKGRFTISRDNAKNTVYLQMNSLKPEDTAVYYCAADDLPSTGYDYWGPGTQVTVSS,low polyreactivity
